Reference: article PMC3246216 (2012)
Where a chain is given by its changes, count along the chain named. Each block holds one binder with its values, some of them ahead of it.

What was measured:
Experiment in all cases: ITC
Gcn4 101-134 [1] = target: T1, Gcn4 101-134 (Saccharomyces cerevisiae, UniProt P03069)
T1 chain: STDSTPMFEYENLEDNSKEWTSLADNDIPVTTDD

Gcn4 101-134 [2] = target: T2, Gcn4 101-134 (Saccharomyces cerevisiae, UniProt P03069)
T2 chain: T1 chain with A24F

Gcn4 101-134 [3] = target: T3, Gcn4 101-134 (Saccharomyces cerevisiae, UniProt P03069)
T3 chain: T1 chain with W20A, A24F

Kd (Gcn4 101-134 [1]): 65 µM
Kd (Gcn4 101-134 [2]): 10.1 µM
Kd (Gcn4 101-134 [3]): 56 µM
B1: Gal11/Med15 158-238 (protein)
chain: QRRQLTPQQQQLVNQMKVAPIPKQLLQRIPNIPPNINTWQQVTALAQQKLLTPQDMEAAKEVYKIHQQLLFKARLQQQQAQ

Kd (Gcn4 101-134 [2]): 76 µM
B2: Gal11/Med15 158-238 (protein)
chain: B1 chain with M56A
